Columns and labels:
EGFR on A431 cells [1] = biological target: T1, EGFR on A431 cells (human, UniProt P00533 25-1210); experiment: FACS competition on A431 cells against biotinylated cetuximab; panel FACS Competition (3)
T1 construct: whole, on cells; also called epidermal growth factor receptor; ErbB-1
Protocol: (§1) A431 cells were grown to 2×10⁵ cells per well of V-bottom 96-well plates. Cells were washed with FACS staining buffer (FSB). […] The plates were then incubated on ice for 1 hour, and then washed twice with FSB. […] Cells were washed two times with FSB, and stained cells were resuspended with 200 μL of fixing buffer (1% paraformaldehyde). Samples were read using a flow cytometer.

EGFR on A431 cells [2] = biological target: T1, EGFR on A431 cells; experiment: FACS competition on A431 cells: unlabelled antibody against biotinylated cetuximab (0.5 µg/mL), streptavidin-RPE detection; Trial 3
Protocol: as §1

EGFR on A431 cells [3] = biological target: T1, EGFR on A431 cells; experiment: FACS competition on A431 cells: unlabelled antibody against biotinylated cetuximab (0.5 µg/mL), streptavidin-RPE detection; Trial 2
Protocol: as §1

EGFR on A431 cells [4] = biological target: T1, EGFR on A431 cells; experiment: FACS competition on A431 cells: unlabelled antibody against biotinylated cetuximab (0.5 µg/mL), streptavidin-RPE detection; Trial 1
Protocol: as §1

EGFR on A431 cells [5] = biological target: T1, EGFR on A431 cells; experiment: FACS competition on A431 cells against biotinylated cetuximab; panel FACS Competition (2)
Protocol: as §1

EGFR on A431 cells [6] = biological target: T1, EGFR on A431 cells; experiment: FACS competition on A431 cells: unlabelled antibody against biotinylated cetuximab (0.5 µg/mL), streptavidin-RPE detection; column Average of Trials 1-3, column SD prints 0.4
Protocol: as §1

IC50 (read off the curve) (EGFR on A431 cells [1]): ~3 µg/mL
IC50 (EGFR on A431 cells [2]): 2.62 µg/mL
IC50 (EGFR on A431 cells [3]): 1.06 µg/mL
IC50 (EGFR on A431 cells [4]): 1.71 µg/mL
IC50 (read off the curve) (EGFR on A431 cells [5]): ~1 µg/mL
IC50 (EGFR on A431 cells [6]): 1.79 µg/mL
B1: hu225 (antibody, V domains shown)
VH: EVQLVESGGGLVQPGGSLRLSCAASGFSLTNYGVHWVRQAPGKGLEWLGVIWSGGNTDYNTPFTSRLTINKDNSKNTVYLQMNSLRAEDTAVYYCARALTYYDYEFAYWGQGTLVTVSS
VL: DILLTQSPGTLSLSPGERATLSCRASQSIGTNIHWYQQKPGQAPRLLIKYASESISGIPDRFSGSGSGTDFTLTISRLEPEDFAVYYCQQNNNWPTTFGQGTKLEIKR
notes: also called humanized version of MAb225; humanized cetuximab
